System: MS2 coat protein
Experiment: apparent KD of MS2 coat protein; designed switch direction (-1 OFF switch, 1 ON switch): -1; higher = weaker reporter binding
How it was run: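 Stalled E. coli RNA polymerase transcribed designed RNA switches on Illumina chips, which were then titrated with SNAP-549-labelled MS2 coat protein, doubling from 0.7 or 1.5 nM to 3 µM. Steps lasted from 0.8–1.5 h at the lowest concentration to 10–20 min at the highest. The apparent KD is each design's median over clusters of curve-fitted normalised fluorescence.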

[1] = Eterna round: R95, input ligand: FMN 200 uM
[2] = Eterna round: R95, input ligand: microRNA oligo, concentration not stated
[3] = Eterna round: R95, input ligand: none
[4] = input ligand: microRNA oligo, concentration not stated

Sequence	apparent KD of MS2 coat protein [1] [nM]	apparent KD of MS2 coat protein [2] [nM]	apparent KD of MS2 coat protein [3] [nM]	apparent KD of MS2 coat protein (input ligand: FMN 200 uM) [nM]	apparent KD of MS2 coat protein (input ligand: none) [nM]	apparent KD of MS2 coat protein [4] [nM]
UAUAAGCUAGGAUAUCGCUGAGUAAACAUGAGGAUCACCCAUGUGGACCAUGAUUGCCACCGAGAAGGAGCGGGAA [Aonat] (puzzle: Exclusion 5)	119	53.7	56.8			
AAAGCACAUGAGGAUCACCCAUGUGAGGAUAUACAGAAAAUCUCGUUUACGAGGACUCGUAGAAGGCGCAGUGC [Eternabot (L2) Solution 19] (Eterna round: R97, puzzle: Exclusion 1)				20.9	21.3	
AGUAGGUCUACCUUGGUGGAUCUGCAUUUAAGCAGGUGUACAUGAGGAUCACCCAUGUCCUCAUUUGCUCGUCUUAU [JL turnoff v2 99.30] (puzzle: Sensor v3, turn-off variant 2)	453	342	492			
GAGUAGUAAGGAUAUAGUAGGAGGGAGAAGUGAGGAGAGAACUAGAAGGUACAUGAGGAUCACCCAUGUUGAGA [JR_Exclu4_Sub084] (puzzle: Exclusion 4)	24.3	19.2	19.5			
CCGCUGCAAGGAUAUACUUGCGGUGAUGUUCGAGUUCUUCUACUUGAGGAUCACCCAAGUAGAAGGUGCAAAAC [jl-ex2.4.58 ViennaUCT mod] (Eterna round: R97, puzzle: Exclusion 2)				19.2	19.3	
GAAAAGGUAGGAUAUACGUAAAAAAAGGGUAGAAAAAAAACACAUGAGGAUCACCCAUGUAGAAGGACCAAAAG [salish99_ex2_r3_087] (puzzle: Exclusion 2)	88.3	24.7	20.6			
CGGGUGAACAGAGGAUAUCGUACAUGAGGAUCACCCAUGUAAUAAAUGAGAAUUUCGAAUGUAAUCGAGAAGGCUGGAAAACCC [Ostracism 93 - Jieux - Exclusion NG 2] (Eterna round: R96, puzzle: Exclusion NG 2)				228	128	115
AAAAAACAAGGAUAUACUAAGGAUGAUUAUCUUAAUUUUUGACAUGAGGAUCACCCAUGUAGAAGGUGUUAAAA [JR_Exclusion2_Sub007] (puzzle: Exclusion 2)	98.9	47.5	41.2			
UAUUACCCAAGCAGGUCCCACAUGAGGAUCACCCAUGUGCUCGUCUUAUAACGAUCUGUGGGAAAACCUACGGAUCG [Elimod 20 - Jieux - Sensor, turn-off variant 1] (Eterna round: R97, puzzle: Sensor, turn-off variant 1)				27.7	34.4	
CUUCACCCACCUGAGCUCACCCACAUACCUGCUCAGGUGACAUGAGGAUCACCCAUGUUUUUUGCCCGUCUUAUCUU [Soteonge] (puzzle: Sensor v3, turn-off variant 2)	39.4	229	45.6			
UGGGAACGAGGAUAUCGAUGGUGGAACAUGAGGAUCACCCAUGUAUGAGAUAGUGUAGGGCGAGAAGGCGUUAAGU [JR_E5_Sub052] (puzzle: Exclusion 5)		76.7				
UACCGGCGGACCGAAGCUUUUUGCUUGUUUUAUACUACAACAUGAGGAUCACCCAUGUGGUGGUGGUCCGUUGUAGU [JL ViennaUCT Bitein mod 1] (puzzle: Sensor v3, turn-off variant 2)	63.9	16.7	58.6			
UUUUAACAUGAGGAUCACCCAUGUGAGGAUAUCGAAAUUUAUAUUUAUAUUAAUAUUUCGAGAAGGCACAUUUU [JMF 81] (puzzle: Exclusion 1)		176				
GCACGGAGUGUAGGAUAUUAGUGCGAUUAGCACUGAGAAGGACAUGAGGAUCACCCAUGUUCCUCGAUAAAAUACCUUCCGUGC [Eli exng1 - 041] (Eterna round: R96, puzzle: Exclusion NG 1)				13.2	11.8	7.59
GGUGCGUAUGUGAGGAUAUGCUGGUCCUUGGGUCGGCAGAAGGCACAUGAGGAUCACCCAUGUGGUGUCGUUCC [salish99_Bmod_ex4_101] (Eterna round: R96, puzzle: Brourd's mod of Exclusion 4)				378	122	80.3
AUUUUGUGAGGAUAUUAGUUGUAGAAAAUUGUUAGUAUAGCUGAGAAGGCACAUGAGGAUCACCCAUGUAAAUC [JR_Ex4_Sub042] (Eterna round: R97, puzzle: Exclusion 4)				91	19	
GGAUAAAACUGAGGAUAUACGUAUCGCUAGCGAGUAGAAGGCAGACAUGAGGAUCACCCAUGUGAGUUCUCGAUAAGAAACACG [Prohibition 60 - Jieux - Exclusion NG 1] (Eterna round: R96, puzzle: Exclusion NG 1)				163	53.3	35.5

Sequence	apparent KD of MS2 coat protein [1] [nM]	apparent KD of MS2 coat protein [2] [nM]	apparent KD of MS2 coat protein [3] [nM]	apparent KD of MS2 coat protein (input ligand: FMN 200 uM) [nM]	apparent KD of MS2 coat protein (input ligand: none) [nM]	apparent KD of MS2 coat protein [4] [nM]
UGGUGUUACGUAGGAUAUUGUCAACAGGCAGUAGGAUAUGCGAAAGCAGAAGGACCGCCAACAGGCGAGAAGGACGGGUUACCU [pwkr exNG2 2xF7 2xFMN.8] (Eterna round: R96, puzzle: Exclusion NG 2)				136	211	145
CCAAGAAUAGGAUAUACACCAUGUCAGCUUAUAUACAACGAACAUGAGGAUCACCCAUGUAGAAGGGUUCUCUC [Exclusion-2-#1] (Eterna round: R97, puzzle: Exclusion 2)				430	479	
GGAAAGUGAGGAUAUGGUAAUUUAAUUAUUAAUUAAUUAAUCCAGAAGGCACAUGAGGAUCACCCAUGUAAAUG [Mat - Exclusion 4 - D91] (puzzle: Exclusion 4)		30				
AAAUCUCACGUGAGGAUAUCCUGGGCAACGUCCACGGAGAAGGCACAUGAGGAUCACCCAUGUGUUCGCAAUAC [Brourd's mod of Exclusion 4 (MOD2 of Nando's BmEX4 C.1)] (Eterna round: R97, puzzle: Brourd's mod of Exclusion 4)				22.3	17.9	
CCUACUCAGCGAGGAUAUGUAACGGUGACUAGGGACGUCUACAUGAGGAUCACCCAUGUGACUAAGCAGAAGGCGCAGAGCCCA [Learve] (Eterna round: R96, puzzle: Exclusion NG 2)				54.2	47.7	33.1
GUUAGUUAAGGAUAUACUGGGAGCUGCGGCGUCUCGCCGCAACAUGAGGAUCACCCAUGUAGAAGGUGACCAUU [JL ViennaUCT Enbibi mod 5] (puzzle: Exclusion 2)		221				
GCAGCUGCUCUAGGAUAUAUUUUAGCACAUGAGGAUCACCCAUGUGGGACCACAACAGCGCAAGAAUAGAAGGAGACAGCAGUA [Eternabot solution 32] (Eterna round: R96, puzzle: Exclusion NG 2)				506	129	125
GAAAAGGUAGGAUAUACGAAAAAAAAGGGUACAAAAAAAACACAUGAGGAUCACCCAUGUAGAAGGACCAAAAG [salish99_ex2_r3_063] (puzzle: Exclusion 2)	36.8	25.6	20.8			
UAUUCACAAGCGAGAUCCCACAUGAGGAUCACCCAUGUGCUCGUCUUAUAAGGUACUGUGACGAAAGUCACGGUACC [Sensor 3, v1 - 91 v25] (Eterna round: R97, puzzle: Sensor, turn-off variant 1)				19.9	20	
GGUAUGCAGGCUUUAGGUAACAUGAGGAUCACCCAUGUAGCAGGUCGUAACCAGGUCAUUGGUUCUCAACGCUCGUU [Eternabot (L2) Solution 46] (Eterna round: R97, puzzle: Sensor, turn-off variant 1)				31.4	34.4	
UUGUUGUAUGUAGGAUAUGCAUGUUAUUAUUAUGCAGAAGGACAUGAGGAUCACCCAUGUAUAUUAUUAUUAUAUGUUAUAUAU [Title] (Eterna round: R96, puzzle: Exclusion NG 1)				22.2	23.9	17.9
UUUGUCUGUGUGAGGAUAUACUUGUUUGGGUUUUUGUAGAAGGCACAUGAGGAUCACCCAUGUAUUUUGUCGUG [JR_BME4_Sub018] (puzzle: Brourd's mod of Exclusion 4)		36.7				
GAAAAGGUAGGAUAUACGAAAAAAAAGGGCAGAAAAAAAACACAUGAGGAUCACCCAUGUAGAAGGACCAAAAG [salish99_ex2_r3_065] (puzzle: Exclusion 2)	26.6	24.3	23.2			
ACAAGCUCUGUGGGUGGUGACAUGAGGAUCACCCAUGUUUUGCUCGUCUUGUCGGCCGGCCGGCGCCCGGCCGGCCG [-39.6, -68.5, A 12%] (Eterna round: R97, puzzle: Sensor, turn-off variant 1)				498	727	
AAUAACAGAGGAUAUACUGUUUUAUGUGUUUGUUGUUUUGAACAUGAGGAUCACCCAUGUAGAAGGCUGAUUGA [JMF 79] (puzzle: Exclusion 2)		38.7				
AGUGAACAUGAGGAUCACCCAUGUUAGGAUAUGUAUAAUCGACGAGCCUUUUCGUCGGGCAGAAGGGAUGGUGA [Eternabot (L2) Solution 95] (Eterna round: R97, puzzle: Exclusion 1)				44.7	41.6	
